Experimental data taken from the domain aggregation screens of Martell et al. (2025).

Test: soluble fraction after stress (log2 fold change); higher = more stays soluble; pooled small domains, quantitative proteomics
Settings: stress: 75 degC
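Further: 20 min heating vs room temperature control held 20 min.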

| Sequence | soluble fraction (log2) |
| --- | --- |
| HMGSLVVVPNLVGQNYDEVKLSTKYSDFEIVQKNTEYSEAPAGQIIKQDPEAGTKVKKHSTINVTVSK | -0.167 |
| HMGSQELIQLGERIRQKRKDSHLTQETFAEKAGISVNTVSRIEGGQAAMSIEIFAKLVEILDADANELLG | -1.39 |
| HMGSRAEAKEFLQTMLADGRQLATDMEEARQAHDIADRTLRRARKELNVQVYRDGNAWYWELPTPIK | -0.585 |
| HMGSREVPFSDFISKVESGSVLEVVLRGRQVEGLTDANERFQTQIPNYPALFEILERNQVRTRVEPT | -0.0642 |
| HMGSTATVIASRLNMRASASTTGALLTKIPNGATVTVLGTTGAWSHIRYGSYTGYVMSQYLRING | -3.1 |
| HMGSTVRIVVPAADIPAYKDIQPSDLEYREVPKDEISEDAVTDPQEVINKYSTSPLYAGWPINKNIIET | -0.0405 |
| HMGSYANAWQLAEHAAKDMLGEVIYLLDGKEVHAGILETMSAESIKTASAENVDGKVVIRLVSK | -0.15 |
| HMGSYIGEAKAKEIALSHAGVSASQATFVRSQFEYDDGRAVYDVDFWSGNKEYDYEIDAKSGTIVSYDFD | -0.736 |
| HMGSYVVQLGAFAIRANAEKLAREVDGSIATSGRFSLVRVGPFTSRGQAEQALAKLRARGYSDALIHSL | -2.39 |
| HMGTDFRPVFQYVDELVRAGEFTNLKGMIYFTDGRGIFPEKKPDYDAAFVFLDDGYDPPDVPVWAIKLVL | -0.0422 |
| HMGTGSSAERITMLNSILERQIQAMEIQGNPDAPIVNIQKIYTTLQRIVETAGLKDVDQFFMNPLQGQKEM | -0.134 |
| HMGTIRAPMPGTILKINVVDGDSVTKGDVLLILESMKMENSITSPKTGSVTSVYVSEGDPVQHGETLIDL | -0.196 |
| HMGTISKRINPSGTTVYRAVIRIRKNGYPNFTESRTFSKKSMAAEWVKRREAEIELNPDILFG | -2.57 |
| HMGTLSLLVQKLMAVGLEGAKASEIVERFDRERIERQINALPSRKIKSSRTGFLIRAIELDIPVE | -2.58 |
| HMGTPKMPLSLYLSMVENLRSLKRFALVNQQVKDGFVFFNDVAGIKRLQELLNYHNTGEKPSE | -2 |
| HMGTRIQAVMEDIQSRIAARTYLPGTRLPSVRAQAQAMQVSVSTVVEAYERLAAEGVIASRPGSGFYVAGP | -3.05 |
| HMGTRPAYAADAPNPQKRFIYHRIVDQLRNKATGAPISYRAIAAETGVSVQTVINIKNRMNQMLSEK | -1.27 |
| HMGTRPIQIASFSKEENAKRAVEALAKIGITAQPQKSGSATKAVWGVVANGDADLLAKIKAAGFADAYFL | 0.0154 |
| HMGTRTILGIDPGSRKTGFGIIRLDGSRTHYVSSGVIRIPDTALPERLKIIFASLNEIIQQFQPQEV | -0.339 |
| HMGTRYVEFVIPGTGNHEVRIVSSNGSRQNVEVAGTYPGGARLRTKVDNGVRRVSFYVDNRLVEEKQ | -0.26 |
| HMGTSFKITFYKDAFQVDDGPIRMLNDPANQKFVDEVSQGYAPKELIGQGGKAPEIDIIDKRSENAPT | 0.156 |
| HMGTVFTDIMTDIASGKFPNVFPDSLEAQIQKNVTMAPDKLSATLQYGDKSVILPTTKGKEAAEAAVKAA | 0.000803 |
| HMGTYTSALDGIKGLGKKRKMLLLNTYKSIDVLKSVPLTELSQLIPREVAEALLTKLNRVDD | -1.18 |

| Sequence | soluble fraction (log2) |
| --- | --- |
| HMGVDASVDSKLDLLSQVLDSDQVKEQLPEAVLEQLAQNLDRWRSLHEESELQDDDIAELNRLLGLFGLG | 0.111 |
| HMGVEKHLRITGTSTVSWKDAIVQAVAEASKTIDYLSNVKIIEQRARIDGKKLVEYFVDLDLSFVID | -0.23 |
| HMGVGITAPLAGNIFKIVVQPGDVVASGDVVLVLEAMKMETEIRAASGGTVSQVLVREGDAVDAGHTLITL | -2.85 |
| HMGVGVTAPLAGNIFKIVKQPGDVVASGDVVLILEAMKMETEIRAAAGGTVKQVLVREGDAVDAGHTLMTL | -1.38 |
| HMGVHSVVPDIKNKHYGEAKAILAANGLSIEISDSIYDRSVAPGTVVESWPKAGAIVKGDRAVFVTLTAF | -1.61 |
| HMGVMTGAEFVGNTVASVERNLIIDTLKHTMGNRTTAANILGISIRTLRNKLKQYQNEGFDIPE | -1.11 |
| HMGVPELHKGEIVQAVVEKVLGEGLLRVNLKGMTVEAATSLRLNPGQQLLLRSEGIENGRQVLR | 0.275 |
| HMGVQKGKDNALAVQQWIAERDATGDFGEYERRGIINRSALFDELGIPRSSMGSNDQIRQMIEAADVRWF | -0.47 |
| HMGVREIIVQFLEQFDKPKSVQEIVEYVLRYRNTTENSIRSTMYSGSQFRQFDNGYFGLSDKSYPNEYIYA | -1.49 |
| HMGVRLAPEVDRIPYGQMHPNLKKVKDLYEASYKAYVQALSSGNQALAKEKLEEFQSTKARYQRALSAYT | 0.305 |
| HMGVRVEVDAVTPPGAMASGSVVFSDGESKKWSVDQFGRLAMTGGAPDYKPSDQDVMEFQQQLEQSL | 0.125 |
| HMGVSAGQVRGLIRNLIAGEDKSKPLSDLALERELEKREIRISRRTVAKYRAELGIPNSDQRRYLP | -1.68 |
| HMGVSLKEIQENLSLIDDAAQKLASGQGTVDDAVGMGNAGKDIYDNIEGYVSSPKEFINGVLSSV | -0.0252 |
| HMGVSVNVQPAILDWAMQKAQMGNAGSSVIEMIAKWISGEKAPTFNQIEDVSKKISIPFGFFFLKEPPIE | -2.05 |
| HMGVTGYPNPTREHITWDDARRIEVWNAYGVPVADLRFARGVLDVAGWPVGTYVARIDGGRSVRFVVI | -1.05 |
| HMGVTVDEVHRNFESGMNVVHKKFGAGVVDSFDEGKIRINFDGVIKVFIADVLINSGMLESVSYTH | -0.832 |
| HMGWEDLVGKTAVVKVALAPVGMVFFRGEFWSAISETGRIEPGEEVTISRIDGLKLYVTKKRIM | -3.89 |
| HMGWEPTPVLVAARDISGGTVLDQDMLRVEAIPSRLVTPSIVRSDLLASVQDAKLLLPMKQGDLLNFNMLQ | -0.0591 |
| HMGWVMLVIMSRGASEAQINAVVEKIRAAGLTEHLSKGIERTIIGAIGEERKLEPEVFELLPGVEQALHIV | -2.2 |
| HMGYDSYDADTIPKLKIGSIVEHPKFGEGSIISKAGAEVTIAFKIKGVKKINLEYTSIKVLK | -1.67 |
| HMGYGEQEQEAQKYLALHALMSQDPTLAKMYQAPNQYKLMSHVMEQNGIKNVNDYLTDPQQLP | -0.157 |
| HMGYKDIDKLSGVDLAIYRFIVEHDEQIPYMRVRELARGAHVSNSSVMRFIRKIGYDSFPEFKVSLRS | -0.0854 |
| HMGYPGLGSIGSKPLGDLLFQSKLFVKTKREFAEFKMANNNIVWGRRTQYLVRNYPLSVMEVFL | -0.0522 |

| Sequence | soluble fraction (log2) |
| --- | --- |
| HMHAGQIISQKIKESGISISHVAKHLKVQRATLYNLFEREVWPAHRLRTIEALLHIDLSDLYP | -2.61 |
| HMHANAALTPRQRLRLAQKIVDEEWTVAAAADYFRVSWPTAAKWARRYVELGEAGMADRSSRP | -2.55 |
| HMHDEKHHQLANEIARKWAALRGNRDFAAADELKNLAAEAGVELQATKQAVGQGALAKLKENFDPVKLEAL | 0.192 |
| HMHDLDALTGLSGEARSKVYEEGSVFVAGEMWSAKSDAVIPAGSSIRVVRREGFILVVEKDS | -2.48 |
| HMHDYTTIIGVIELRLNKISYDNVQKRYRIGRSGISLIMERYRDSGLSLDDLKQMPAEKVVNLIYPKD | -2.88 |
| HMHDYYDSIDAVTHDKSYESNLVFALKLGYTETQLQKALLKLGKKAREDQILEELIRIQKSSKA | -0.362 |
| HMHEGNWTLPNPMPIGTTLTLPEHSRLYISNLAGQRVFETSATSVEIPLLPKGTYLLRLETMNGHTTRKIL | -0.106 |
| HMHELKIEKVAEAPNGAMRLLLSDGSEWVLGVKSWNRLNLSLEKILDVNVLRALEKESQYHLLRTKALEL | -1.39 |
| HMHFIMEYRIRAYVDELFESAPRTQRAYELKIELTQNLIDKYYALVSEGKSEQDAYNLTVMSIGDVREL | -3.01 |
| HMHGEAVVVPNVKGLPMRQAENEIYKQSLKAVAIDSSYVKGMPPGAILEQNPAGGSKVKKGRTVYLTINMD | -0.268 |
| HMHGERVVTAGQTVRVVFTSNGLQVSSEGKALAAGAVGDDIQVRAASGKVIRGTVTGPGVVQV | 0.233 |
| HMHGLNQNKPIPIADIVNSVNNYLTSLGKKTITDNSVLSNLKKAAKYLNTAYNLVLRPDSLNMTVTLL | 0.323 |
| HMHIMINPDQLSPEQIQSIRTWAEEGLDLNAIQKRLHEDLNIKLTFMDTRFLLQDLDIRIRQPEPEPEAEQ | -0.208 |
| HMHINLEGLKKIDFRKKIGFLFGSEASGLSNKEVSYANYTLQIPTNINFKSLNLSHSLIIIAQFISSLLNS | -0.55 |
| HMHKIRRQTKITKSLLDQIEGIGSSRKKALLNHFGSAKAVGEAGETDLGTVKGISNSLAKKIYDFFHAT | -0.545 |
| HMHLDIGQLVQRILADIQVGKLADGQRKLPAEPVLMERYQVTRYTLRQALKQLSNMGYTYQMHGIGTFVRQ | -1.79 |
| HMHLKDEHGLTPKQRAFADEYVITLNATVSYKKIYSVKRDSVASTNGSRLLGNANVKAYIDKRLEE | -2.26 |
| HMHLKRQEAINLGAYLLGAELRIHRLSLEELGSERIDEMLAAINYKTLDDLLADIGLGNRPARFVARQLG | -1.86 |
| HMHLLGASIAAYRKKAGMTQEDLGRALFVSGQAVSRWERGGTPDSDMLPKIADVLGISLDTLFGRS | -1.57 |
| HMHLRYTYIYDNENRVTSKEASKWDSTQEAWVPYFKMNVSYVNNEVELSYARWNSKSNAYDSSIKKTI | -2.54 |
| HMHLTNIPKGFTPSFDTKQWIVEEFGERYNYDNELKIFINHYRASGTTKSDWQYAFRSWLLRAKKFT | -2.83 |
| HMHLTRYLHTMIRAANLDDTLDFFVEKLGLIEAYRYSNEAGRFTLVFLSAPDDLESAQSRQAPLVEITYN | -1.32 |
| HMHLYDMYNLTEKEISIIRLIANGLNNKEISQELFLSEGTIKNNITNILAKLELRDRTQLAIFAFKNKIVI | -3.6 |
